Data reported in the Human Domainome abundance scans (Beltran et al. 2025).
± gives the uncertainty stated by the source.

B1: Calcium-binding protein 2, residues 155 to 219; numbered along this chain, Q9NPB3 (parent)
chain: RELRDAFREFDTNGDGRISVGELRAALKALLGERLSQREVDEILQDVDLNGDGLVDFEEFVRMMS

Variants of: B1
Experiment: abundance fitness (aPCA) (normalised: wild type 0, dead -1); higher = more abundant; growth selection in yeast, the domain comes from the species named
Settings: Homo sapiens

| Variant | abundance fitness |
| --- | --- |
| RELRDAFREFDTNGDGRISVGELRAALKALLGERLSSREVDEILQDVDLNGDGLVDFEEFVRMMS | -0.104 ± 0.13 |
| RELRDAFREFDTNGDGRISVGELRAALKALLGERLSKREVDEILQDVDLNGDGLVDFEEFVRMMS | 0.022 ± 0.14 |
| RELRDAFREFDTNGDGRISVGELRAALKALLGERLSWREVDEILQDVDLNGDGLVDFEEFVRMMS | -0.031 ± 0.099 |
| RELRDAFREFDTNGDGRISVGELRAALKALLGERLSDREVDEILQDVDLNGDGLVDFEEFVRMMS | -0.351 ± 0.42 |
| RELRDAFREFDTNGDGRISVGELRAALKALLGERLSGREVDEILQDVDLNGDGLVDFEEFVRMMS | -0.072 ± 0.072 |
| RELRDAFREFDTNGDGRISVGELRAALKALLGERLSLREVDEILQDVDLNGDGLVDFEEFVRMMS | -0.017 ± 0.079 |
| RELRDAFREFDTNGDGRISVGELRAALKALLGERLSCREVDEILQDVDLNGDGLVDFEEFVRMMS | -0.533 ± 0.25 |
| RELRDAFREFDTNGDGRISVGELRAALKALLGERLSTREVDEILQDVDLNGDGLVDFEEFVRMMS | 0.021 ± 0.082 |
| RELRDAFREFDTNGDGRISVGELRAALKALLGERLSHREVDEILQDVDLNGDGLVDFEEFVRMMS | -0.504 ± 0.27 |
| RELRDAFREFDTNGDGRISVGELRAALKALLGERLSMREVDEILQDVDLNGDGLVDFEEFVRMMS | -0.278 ± 0.14 |
| RELRDAFREFDTNGDGRISVGELRAALKALLGERLSEREVDEILQDVDLNGDGLVDFEEFVRMMS | 0.06 ± 0.098 |
| RELRDAFREFDTNGDGRISVGELRAALKALLGERLSPREVDEILQDVDLNGDGLVDFEEFVRMMS | 0.266 ± 0.16 |
| RELRDAFREFDTNGDGRISVGELRAALKALLGERLSNREVDEILQDVDLNGDGLVDFEEFVRMMS | 0.221 ± 0.25 |
| RELRDAFREFDTNGDGRISVGELRAALKALLGERLSRREVDEILQDVDLNGDGLVDFEEFVRMMS | -0.087 ± 0.077 |
| RELRDAFREFDTNGDGRISVGELRAALKALLGERLSAREVDEILQDVDLNGDGLVDFEEFVRMMS | 0.003 ± 0.088 |
| RELRDAFREFDTNGDGRISVGELRAALKALLGERLSQREGDEILQDVDLNGDGLVDFEEFVRMMS | -0.055 ± 0.065 |
| RELRDAFREFDTNGDGRISVGELRAALKALLGERLSQRETDEILQDVDLNGDGLVDFEEFVRMMS | -0.187 ± 0.12 |
| RELRDAFREFDTNGDGRISVGELRAALKALLGERLSQREQDEILQDVDLNGDGLVDFEEFVRMMS | 0.063 ± 0.071 |
| RELRDAFREFDTNGDGRISVGELRAALKALLGERLSQREIDEILQDVDLNGDGLVDFEEFVRMMS | 0.047 ± 0.19 |
| RELRDAFREFDTNGDGRISVGELRAALKALLGERLSQREDDEILQDVDLNGDGLVDFEEFVRMMS | 0.043 ± 0.13 |
| RELRDAFREFDTNGDGRISVGELRAALKALLGERLSQREFDEILQDVDLNGDGLVDFEEFVRMMS | -0.086 ± 0.24 |

| Variant | abundance fitness |
| --- | --- |
| RELRDAFREFDTNGDGRISVGELRAALKALLGERLSQREEDEILQDVDLNGDGLVDFEEFVRMMS | 0.169 ± 0.07 |
| RELRDAFREFDTNGDGRISVGELRAALKALLGERLSQREYDEILQDVDLNGDGLVDFEEFVRMMS | -0.117 ± 0.23 |
| RELRDAFREFDTNGDGRISVGELRAALKALLGERLSQREKDEILQDVDLNGDGLVDFEEFVRMMS | -0.04 ± 0.082 |
| RELRDAFREFDTNGDGRISVGELRAALKALLGERLSQRERDEILQDVDLNGDGLVDFEEFVRMMS | 0.108 ± 0.045 |
| RELRDAFREFDTNGDGRISVGELRAALKALLGERLSQREADEILQDVDLNGDGLVDFEEFVRMMS | 0.006 ± 0.07 |
| RELRDAFREFDTNGDGRISVGELRAALKALLGERLSQREMDEILQDVDLNGDGLVDFEEFVRMMS | 0.048 ± 0.091 |
| RELRDAFREFDTNGDGRISVGELRAALKALLGERLSQRESDEILQDVDLNGDGLVDFEEFVRMMS | -0.011 ± 0.073 |
| RELRDAFREFDTNGDGRISVGELRAALKALLGERLSQRECDEILQDVDLNGDGLVDFEEFVRMMS | -0.086 ± 0.097 |
| RELRDAFREFDTNGDGRISVGELRAALKALLGERLSQREHDEILQDVDLNGDGLVDFEEFVRMMS | 0.038 ± 0.095 |
| RELRDAFREFDTNGDGRISVGELRAALKALLGERLSQREWDEILQDVDLNGDGLVDFEEFVRMMS | 0.041 ± 0.055 |
| RELRDAFREFDTNGDGRISVGELRAALKALLGERLSQCEVDEILQDVDLNGDGLVDFEEFVRMMS | -0.079 ± 0.08 |
| RELRDAFREFDTNGDGRISVGELRAALKALLGERLSQVEVDEILQDVDLNGDGLVDFEEFVRMMS | -0.021 ± 0.071 |
| RELRDAFREFDTNGDGRISVGELRAALKALLGERLSQSEVDEILQDVDLNGDGLVDFEEFVRMMS | 0.001 ± 0.08 |
| RELRDAFREFDTNGDGRISVGELRAALKALLGERLSQDEVDEILQDVDLNGDGLVDFEEFVRMMS | 0.1 ± 0.075 |
| RELRDAFREFDTNGDGRISVGELRAALKALLGERLSQLEVDEILQDVDLNGDGLVDFEEFVRMMS | -0.053 ± 0.068 |
| RELRDAFREFDTNGDGRISVGELRAALKALLGERLSQAEVDEILQDVDLNGDGLVDFEEFVRMMS | 0.001 ± 0.068 |
| RELRDAFREFDTNGDGRISVGELRAALKALLGERLSQQEVDEILQDVDLNGDGLVDFEEFVRMMS | -0.212 ± 0.21 |
| RELRDAFREFDTNGDGRISVGELRAALKALLGERLSQEEVDEILQDVDLNGDGLVDFEEFVRMMS | -0.232 ± 0.17 |
| RELRDAFREFDTNGDGRISVGELRAALKALLGERLSQNEVDEILQDVDLNGDGLVDFEEFVRMMS | 0.085 ± 0.1 |
| RELRDAFREFDTNGDGRISVGELRAALKALLGERLSQFEVDEILQDVDLNGDGLVDFEEFVRMMS | -0.104 ± 0.2 |
| RELRDAFREFDTNGDGRISVGELRAALKALLGERLSQGEVDEILQDVDLNGDGLVDFEEFVRMMS | 0.014 ± 0.042 |

| Variant | abundance fitness |
| --- | --- |
| RELRDAFREFDTNGDGRISVGELRAALKALLGERLSQKEVDEILQDVDLNGDGLVDFEEFVRMMS | -0.67 ± 0.47 |
| RELRDAFREFDTNGDGRISVGELRAALKALLGERLSQYEVDEILQDVDLNGDGLVDFEEFVRMMS | -0.114 ± 0.14 |
| RELRDAFREFDTNGDGRISVGELRAALKALLGERLSQIEVDEILQDVDLNGDGLVDFEEFVRMMS | 0.03 ± 0.069 |
| RELRDAFREFDTNGDGRISVGELRAALKALLGERLSQTEVDEILQDVDLNGDGLVDFEEFVRMMS | -0.052 ± 0.076 |
| RELRDAFREFDTNGDGRISVGELRAALKALLGERLSQPEVDEILQDVDLNGDGLVDFEEFVRMMS | -0.056 ± 0.058 |
| RELRDAFREFDTNGDGRISVGELRAALKALLGERLSQWEVDEILQDVDLNGDGLVDFEEFVRMMS | -0.107 ± 0.061 |
| RELRDAFREFDTNGDGRISVGELRAALKALLGERLSQMEVDEILQDVDLNGDGLVDFEEFVRMMS | -0.112 ± 0.1 |
| RELRDAFREFDTNGDGRISVGELRAALKALLGERLTQREVDEILQDVDLNGDGLVDFEEFVRMMS | 0.012 ± 0.12 |
| RELRDAFREFDTNGDGRISVGELRAALKALLGERLYQREVDEILQDVDLNGDGLVDFEEFVRMMS | -0.263 ± 0.18 |
| RELRDAFREFDTNGDGRISVGELRAALKALLGERLVQREVDEILQDVDLNGDGLVDFEEFVRMMS | 0.07 ± 0.064 |
| RELRDAFREFDTNGDGRISVGELRAALKALLGERLQQREVDEILQDVDLNGDGLVDFEEFVRMMS | 0.047 ± 0.1 |
| RELRDAFREFDTNGDGRISVGELRAALKALLGERLRQREVDEILQDVDLNGDGLVDFEEFVRMMS | -0.004 ± 0.057 |
| RELRDAFREFDTNGDGRISVGELRAALKALLGERLWQREVDEILQDVDLNGDGLVDFEEFVRMMS | -0.177 ± 0.07 |
| RELRDAFREFDTNGDGRISVGELRAALKALLGERLNQREVDEILQDVDLNGDGLVDFEEFVRMMS | -0.197 ± 0.14 |
| RELRDAFREFDTNGDGRISVGELRAALKALLGERLPQREVDEILQDVDLNGDGLVDFEEFVRMMS | -0.107 ± 0.065 |
| RELRDAFREFDTNGDGRISVGELRAALKALLGERLMQREVDEILQDVDLNGDGLVDFEEFVRMMS | -0.092 ± 0.093 |
| RELRDAFREFDTNGDGRISVGELRAALKALLGERLSQREVDMILQDVDLNGDGLVDFEEFVRMMS | -0.143 ± 0.14 |
| RELRDAFREFDTNGDGRISVGELRAALKALLGERLSQREVDIILQDVDLNGDGLVDFEEFVRMMS | -0.204 ± 0.11 |
| RELRDAFREFDTNGDGRISVGELRAALKALLGERLSQREVDDILQDVDLNGDGLVDFEEFVRMMS | -0.166 ± 0.12 |
| RELRDAFREFDTNGDGRISVGELRAALKALLGERLSQREVDCILQDVDLNGDGLVDFEEFVRMMS | -0.074 ± 0.2 |
| RELRDAFREFDTNGDGRISVGELRAALKALLGERLSQREVDGILQDVDLNGDGLVDFEEFVRMMS | -0.081 ± 0.052 |

| Variant | abundance fitness |
| --- | --- |
| RELRDAFREFDTNGDGRISVGELRAALKALLGERLSQREVDKILQDVDLNGDGLVDFEEFVRMMS | -0.178 ± 0.15 |
| RELRDAFREFDTNGDGRISVGELRAALKALLGERLSQREVDAILQDVDLNGDGLVDFEEFVRMMS | -0.183 ± 0.068 |
| RELRDAFREFDTNGDGRISVGELRAALKALLGERLSQREVDLILQDVDLNGDGLVDFEEFVRMMS | -0.175 ± 0.066 |
| RELRDAFREFDTNGDGRISVGELRAALKALLGERLSQREVVEILQDVDLNGDGLVDFEEFVRMMS | -0.237 ± 0.076 |
| RELRDAFREFDTNGDGRISVGELRAALKALLGERLSQREVHEILQDVDLNGDGLVDFEEFVRMMS | -0.437 ± 0.11 |
| RELRDAFREFDTNGDGRISVGELRAALKALLGERLSQREVGEILQDVDLNGDGLVDFEEFVRMMS | -0.162 ± 0.087 |
| RELRDAFREFDTNGDGRISVGELRAALKALLGERLSQREVIEILQDVDLNGDGLVDFEEFVRMMS | -0.184 ± 0.15 |
| RELRDAFREFDTNGDGRISVGELRAALKALLGERLSQREVYEILQDVDLNGDGLVDFEEFVRMMS | 0.03 ± 0.2 |
| RELRDAFREFDTNGDGRISVGELRAALKALLGERLSQREVAEILQDVDLNGDGLVDFEEFVRMMS | -0.151 ± 0.071 |
| RELRDAFREFDTNGDGRISVGELRAALKALLGERLSQREVREILQDVDLNGDGLVDFEEFVRMMS | -0.15 ± 0.062 |
| RELRDAFREFDTNGDGRISVGELRAALKALLGERLSQREVKEILQDVDLNGDGLVDFEEFVRMMS | -0.095 ± 0.062 |
| RELRDAFREFDTNGDGRISVGELRAALKALLGERLSQREVLEILQDVDLNGDGLVDFEEFVRMMS | -0.305 ± 0.092 |
| RELRDAFREFDTNGDGRISVGELRAALKALLGERLSQREVCEILQDVDLNGDGLVDFEEFVRMMS | -0.059 ± 0.14 |
| RELRDAFREFDTNGDGRISVGELRAALKALLGERLSQREVNEILQDVDLNGDGLVDFEEFVRMMS | -0.506 ± 0.48 |
| RELRDAFREFDTNGDGRISVGELRAALKALLGERLSQREVWEILQDVDLNGDGLVDFEEFVRMMS | -0.158 ± 0.075 |
| RELRDAFREFDTNGDGRISVGELRAALKALLGERLSQREVEEILQDVDLNGDGLVDFEEFVRMMS | -0.077 ± 0.083 |
| RELRDAFREFDTNGDGRISVGELRAALKALLGERLSQREVTEILQDVDLNGDGLVDFEEFVRMMS | -0.104 ± 0.056 |
| RELRDAFREFDTNGDGRISVGELRAALKALLGERLSQREVPEILQDVDLNGDGLVDFEEFVRMMS | -0.221 ± 0.14 |
| RELRDAFREFDTNGDGRISVGELRAALKALLGERLSQREVQEILQDVDLNGDGLVDFEEFVRMMS | -0.365 ± 0.17 |
| RELRDAFREFDTNGDGRISVGELRAALKALLGERLSQREVMEILQDVDLNGDGLVDFEEFVRMMS | -0.302 ± 0.12 |
